Experiments:
[1] = PN and peptide size (volume, diameter) by FPLC gel filtration (Superdex 200, globular protein standards); type: physicochemical; settings: for Molecular Volume: Table 3C, proposed Example 4 compounds; for diameter: FPLC gel filtration; for Volume FPLC / Volume FPLC (diameter): Table 5; for Volume FPLC: globular protein equivalent molecular weight; for Molecular Volume FPLC: Table 3B, dipeptides; for Volume FPLC (diameter): converted from globular protein equivalent MW
Procedure: DOTA-Lys-Cys(IR783)-NH2 is then dissolved in DMSO, with 2 equivalents of an NHS ester of PEG and 6 equivalents of DIPEA. The reaction was at room temperature for 5 days. Product was purified by reverse phase HPLC separation. Product molecular weight was by matrix-assisted laser desorption ionization time-of-flight mass spectrometry (MALDI-TOF MS), with product molecular volume by size exclusion FPLC using globular protein standards (GE Healthcare life science AKTApurifier 10).
The mass spec of low molecular weights (MW) were obtained by MS-ESI Micromass (Waters) and high MW molecules were determined through MALDI-TOF analyses at the Tufts University Core Facility. RP-HPLC (Varian ProStar detector and delivery modules) employed an eluant A (0.1% TFA/water) and eluant B (0.1% TFA and 9.9% water in acetonitrile). Probe size (volume) was determined by FPLC using an ÄKTA Purifier 10 and Superdex™ 200 10/300GL column (GE Healthcare) with a running buffer of 0.05 M sodium phosphate, 0.15 M NaCl (0.1% Tween, pH 7.2) and flow rate of 0.8 ml/min. Standards (GE Healthcare) were Ferritin, Ribonuclease A, Carbonic Anhydrase, and Conalbumin and Blue Dextran 2000. To obtain probe volumes, Mr (apparent molecular weight based on size exclusion retention) was plotted versus Kav. Kav=(Ve−Vo)/(Vt−Vo), Vt=total volume, Ve=elution volume, Vo=void volume.
The column was calibrated with globular protein standards, and globular protein equivalent molecular weights (in kDa) were obtained (Table 5, column 5). These were converted to PN diameters in nm using the relationship: Radius in nm=[…] where M is the molecular weight of a globular protein expressed in daltons (see Erickson, “Size and Shape of Protein Molecules at the Nanometer Level Determined by Sedimentation, Gel Filtration, and Electron Microscopy”, Biological Procedures Online 2009, 11(1): 32-50). PN's diameters ranged from 3.0 to 11.8 nm (see FIG. 23a). Using PEG's of 5 kDa and 30 kDa, selected for their low polydispersity, PN's were synthesized using IR-783, Cy3 and Fluorescein (see FIG. 22a) and their sizes determined (see FIGS. 23a, 23b, 23c). With the 5 kDa PEG and these three fluorochromes (see the magenta chromatograms in FIGS. 22a, 23b and 23c) PN diameters were 4.3 nm. With the 30 kDa PEG and these three fluorochromes (blue chromatograms, 23a, 23b, 23c), PN diameters were now 10.0 nm. For reference, the diameter of a 67 kDa albumin determined by this method was 5.4 nm.

[2] = Quantum yield determination; type: physicochemical; settings: for Quant. Yield: Table 5, in PBS
Procedure: Quantum yields were determined as described in Demas et al., “Measurement of photoluminescence quantum yields. Review”, Journal of Physical Chemistry 75, 991-1024 (1971), and Shao et al., “Facile Synthesis of Monofunctional Pentamethine Carbocyanine Fluorophores. Dyes and pigments: an international journal 90, 119-122 (2011). For IR-783 a reference quantum yield of 0.043 was used (see Li et al., “Synthesis and characterization of glucosamine-bound near-infrared probes for optical imaging”, Organic letters 8, 3623-3626, 2006); for fluorescein a reference quantum yield was […] (see Sjoback et al., “Absorption and florescence properties of fluorescein”, Spectrohimica Acta Part A 51, L7-L21, 1995). For Cy3 a reference quantum yield of 0.31 was used (Luminprobe Inc). For PN(783)'s, excitation was at 730 nm and emission spectra were recorded from 765 nm to 870 nm in PBS and maximum emission used. For PN(545)'s, excitation was at 515 nm and emission spectra were recorded from 538 nm to 700 nm in PBS and maximum emission used. For PN(497)'s, excitation was at 450 nm and emission spectra were recorded from 475 nm to 620 nm in PBS and maximum emission used. Absorbance of each probe was adjusted less than 0.1. Measurements were made in triplicate and are expressed as mean±SD.

[3] = test system: HT-29, a human colon carcinoma cell line; assay: PN and peptide binding to cells (non-specific binding, FACS); type: cell-based; settings: HT-29 cells; for Cell NSB (percent of cells with fluorescence higher than unstained cell): 30 min at 37° C., FACS
Procedure: HT-29, a human colon carcinoma cell line, was from the American Tissue Culture Collection and maintained according to their instructions. Cells were seeded on 24-well plates at 5×10^5 cells/well in culture medium (RPMI 1640 with 10% FBS) the day before the assay. The day of assay, medium was removed, wells rinsed twice with DPBS (+Ca, +Mg), and 100 μl of 2% FBS/DPBS (+Ca, +Mg) added. 100 μL of Nanoprobes (2 μM) in DPBS (+Ca, +Mg) was added to cells and incubated for 30 min at 37° C. (Probe concentrations were determined spectrophotometrically (783 nm, extinction coefficient of 314 471 cm^−1 M^−1 for IR-783; 497 nm, extinction coefficient of 68 000 cm^−1 M^−1 for Fluorescein; 545 nm, extinction coefficient of 150 000 cm^−1 M^−1 for Cy3). Cells were detached by Trypsin/EDTA and assayed for fluorescence by FACS (BD 7 laser LSR2 for nanoprobes with IR-783; BD 3 laser LSR2 for nanoprobes with Fluorescein or Cy3).

[4] = Probe volume determination by FPLC (Superdex 75, globular protein standards); type: physicochemical
Procedure: Size (volume) was determined by FPLC using an ÄKTA Purifier 10 and Superdex™ 75 10/300 GL column (GE Healthcare Lifesciences) with a running buffer of 0.05 M sodium phosphate, 0.15 M NaCl (0.1% Tween, pH 7.2) and flow rate of 0.5 ml/min. The protein standards (Gel Filtration Calibration Kit LMW, code no. 28-4038-41, GE Healthcare) (0.3 mg/ml, mixture of Aprotinin, Ribonuclease A, Ovalbumin, and Conalbumin) and Blue Dextran 2000 were used. To obtain volumes, Mr (apparent molecular weight based on size exclusion retention) was plotted versus Kav. Kav=(Ve−Vo)/[…], Vt=total volume, Ve=elution volume, Vo=void volume.

[5] = test system: GFP expressing BT-20 breast carcinoma xenograft; assay: Tumor surface fluorescence after peritumoral (DMR) or IV injection; type: in vivo, mouse
Procedure: Day 1, BT-20 cells were planted into 24-well plate at 750,000 cells/well in culture medium (EMEM with 10% FBS). Day 2, the old culture medium was replaced with new culture medium containing lenti-virus (1×10^8 particles/mL) and protamine sulphate (American Pharmaceutical Partners, Los Angelus, Calif.; 10 mg/mL; 1:500 of total volume of medium). Day 3, after 16 hours of transfection, medium was changed to the culture medium (EMEM with 10% FBS). 8 hours later, green cells could be seen via fluorescence microscope.
All animal experiments were approved by the Institutional Review Committee of Massachusetts General Hospital. Female nude mice (25-30 g; 6-8 weeks old; nu/nu; Cox 7, Massachusetts General Hospital, Boston, Mass.) were anesthetized with isoflurane/O2. Tumor cell implantation was performed both sides around the shoulder. 200 μl of cell suspension containing 10^6 cells in Matrigel (BD) was injected subcutaneously. Tumor cells were inoculated for 7 to 10 days.
The diffusion and molecular retention required of the DMR technique with a tumor bearing model were investigated. We peritumorally injected the RGD probe into an animal bearing two GFP expressing BT-20 breast carcinomas and monitored tumor GFP fluorescence and probe fluorescence as a function of time after injection. The non-integrin binding RAD probe was injected into a second animal also bearing two tumors. Overlaying purple probe fluorescence over green GFP yields white. […] Tumor surface fluorescence from both probes was quantified by the use of solution standards.
In FIG. 8a), two animals bearing two tumors were PT injected with the RGD probe or RAD probe as indicated and surface fluorescence images were obtained. […] In FIG. 8b), quantitation of tumor surface fluorescence after injections of the RGD or RAD probes as above. Surface fluorescence was quantified through the use of standard solutions.
To compare the DMR and intravenous (IV) methods, surface fluorescence images of tumor GFP and RGD probe fluorescence were obtained with skin removed, and overlays from the two signals obtained. With both DMR and IV administration, probe fluorescence extended beyond tumor GFP margins to a stromal area beyond the tumor. However, tumor fluorescence was far higher with DMR than IV injection, even though dose was far lower (50 pmoles/mouse by DMR versus 2000 pmoles/mouse by IV).
In FIG. 9a), skin covering GFP-BT-20 tumor was removed. Shown are visible GFP fluorescence, probe (CyAL5.5) fluorescence, and the overlay of GFP and probe fluorescence plus an X-ray image. Green GFP plus purple CyAL5.5 fluorescence yielded a white overlaid image. In FIG. 9b), with DMR or IV, probe fluorescence included a stromal zone of integrin binding surrounding the tumor was seen. […]

[6] = Table 3A, CyAL5.5 tetrapeptides
[7] = Table 3C, proposed Example 4 compounds

5 kDa PEG-Cys(IR-783)-OH
Molecular Volume [1]: >20 kDa

CC1(C)C(/C=C/C=C/C=C/C=C2/N(CCCCS(=O)(=O)O)c3ccc4ccccc4c3C2(C)C)=[N+](CCCCS(=O)(=O)O)c2ccc3ccccc3c21 [ICG, Indocyanine green, reference compound]
Quantum Yield ([2]; Table 3B, IR-783 dipeptides): 0.041

(DOTA)Lys(PEG5K)-Cys(Cy3) [PN(545)4.3]
Quant. Yield [2]: 0.59 | diameter [1]: 4.3 nm | Volume FPLC [1]: 35 kDa | Cell NSB (percent of cells with fluorescence higher than unstained cell) [3]: 31%

(DOTA)Lys(PEG5K)-Cys(FI) [PN(497)4.3]
Quant. Yield [2]: 0.59 | diameter [1]: 4.3 nm | Volume FPLC [1]: 35 kDa | Cell NSB (percent of cells with fluorescence higher than unstained cell) [3]: 0.2%

(DOTA)Lys(PEG30K)-Cys(FI) [PN(497)10.0]
Quant. Yield [2]: 0.60 | Volume FPLC [1]: 435 kDa | Cell NSB (percent of cells with fluorescence higher than unstained cell) [3]: 0.1%

(DOTA)Lys(PEG40K)-Cys(IR-783) [PN(783)11.7]
Quantum Yield ([2]; Table 3B, IR-783 dipeptides): 0.18 | Quant. Yield [2]: 0.16 | Molecular Volume FPLC [1]: 690 kDa | Volume FPLC (diameter) [1]: 11.7 nm | Volume FPLC [1]: 690 kDa

(DOTA)Lys-Cys(Cy3)
Quant. Yield [2]: 0.32 | Volume FPLC [1]: 0.6 kDa | binding to cells (FACS, FIG. 30) [3]: binds to cells | Cell NSB (percent of cells with fluorescence higher than unstained cell) [3]: 98%

(DOTA)Lys-Cys(Fluorescein) [(DOTA)Lys-Cys(FI)]
Quant. Yield [2]: 0.50 | binding to cells (FACS, FIG. 30) [3]: binds cells very weakly | Cell NSB (percent of cells with fluorescence higher than unstained cell) [3]: 0.4%

(DOTA)Lys-Cys(IR-783)
Quantum Yield ([2]; Table 3B, IR-783 dipeptides): 0.053 | Quant. Yield [2]: 0.053 | diameter [1]: 1.1 nm | Molecular Volume FPLC [1]: 0.600 kDa | Volume FPLC (diameter) [1]: 1.10 nm | Volume FPLC [1]: 0.600 kDa | binding to cells (FACS, FIG. 30) [3]: binds cells | Cell NSB (percent of cells with fluorescence higher than unstained cell) [3]: 95%

DOTA-Lys(CyAL5.5)-Lys(5 kDa PEG)- βAla -Lys(N3)-NH2 [Compound 5b]
Molecular Volume ([4]; Table 3A, tetrapeptides): <1 kDa | Quantum Yield [2, 6]: 0.17

DOTA-Lys(CyAL5.5)-Lys(5 kDa PEG)- βAla -Lys(sPEG-RGD) [Compound 7a]
Equiv. Vol. ([4]; FPLC, globular protein equivalent volume): 25 kDa | Molecular Volume ([4]; Table 4, DMR probes): 20-30 kDa | Quantum Yield ([2]; Table 4, DMR probes): 0.20 | tumor retention of probe fluorescence after peritumoral injection ([5]; BT-20 tumors, 24 hours post injection): retained by the tumor | Tumor fluorescence ([5]; DMR, 50 pmoles/mouse): 15.0 au | Tumor fluorescence ([5]; IV, 2000 pmoles/mouse): 1.5 au

DOTA-Lys(CyAL5.5)-Lys(NH2)-β-Ala-Lys(N3) [Compound 5a]
Molecular Volume ([4]; Table 3A, tetrapeptides): <1 kDa | Quantum Yield [2, 6]: 0.061

DOTA-Lys(CyAL5.5)-Lys(NH2)-β-Ala-Lys(N3-DBCO-PEG4-cRGD)-NH2 [Compound 6a]
Molecular Volume ([4]; Table 3A, tetrapeptides): <1 kDa | Quantum Yield [2, 6]: 0.082

DOTA-Lys(CyAL5.5)-Lys- βala -Lys(sPEG-RAD) [Compound 6b]
Molecular Volume ([4]; Table 3A, tetrapeptides): <1 kDa | Quantum Yield [2, 6]: 0.081

DOTA-Lys(PEG 40 kDa)-Cys(Fl)-NH2
Quantum Yield [2, 7]: 0.60 | Molecular Volume [1]: 690 kDa

NH2-Cys(IR-783)-OH
Quantum Yield [2, 7]: <0.10 | Molecular Volume [1]: <2 kDa
